The values below come from publication PMC9881158, “The DEAD-box protein Dbp6 is an ATPase and RNA annealase interacting with the peptidyl transferase center (PTC) of the ribosome” (Nucleic Acids Research, 2023).

Broadly, the stoichiometry N is the number of molecules, sites or subunits per partner or assembly.

In series [1] the target is T1, Dbp6 (Saccharomyces cerevisiae, UniProt P53734).
T1 construct: full-length ORF, His6 tag (modified pET-15b, pET-Dbp6), kept; E. coli Rosetta λDE3; ca. 73 kDa; size exclusion fraction, mainly monomer / dimer
T1 sequence (P53734 1-629): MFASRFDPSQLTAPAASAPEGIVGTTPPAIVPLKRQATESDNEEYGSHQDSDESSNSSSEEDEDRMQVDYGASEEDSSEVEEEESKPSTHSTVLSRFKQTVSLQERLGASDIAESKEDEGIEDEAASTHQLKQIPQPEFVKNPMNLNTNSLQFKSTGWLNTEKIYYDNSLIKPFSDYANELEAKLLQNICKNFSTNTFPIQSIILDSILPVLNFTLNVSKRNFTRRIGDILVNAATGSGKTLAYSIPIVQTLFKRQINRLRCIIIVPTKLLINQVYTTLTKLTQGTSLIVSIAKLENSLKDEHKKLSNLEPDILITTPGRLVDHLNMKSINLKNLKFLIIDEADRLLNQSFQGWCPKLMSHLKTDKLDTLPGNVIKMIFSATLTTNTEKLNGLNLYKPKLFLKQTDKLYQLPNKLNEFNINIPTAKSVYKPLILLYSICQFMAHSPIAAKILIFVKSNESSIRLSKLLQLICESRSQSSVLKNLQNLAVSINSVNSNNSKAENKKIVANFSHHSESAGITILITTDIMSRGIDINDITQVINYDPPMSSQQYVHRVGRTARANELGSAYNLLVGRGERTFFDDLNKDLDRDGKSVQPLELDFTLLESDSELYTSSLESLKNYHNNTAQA
The series is described as follows: RNA strand annealing assay (ss38-mer / ss58-mer), effect of nucleotide. Format: biochemical. Particulars: 5 mM ADP, 0.25 μM protein, MgCl2 2.5 mM, pH 8, 30°C; indirect read-out.

The target of series [2] is T1, Dbp6. The series is described as follows: ATPase assay, TLC of [α-32P]-ADP. In kind it is biochemical. Particulars: 100 μM ATP, 0.8 μM protein, 2 μM ss58-mer RNA, MgCl2 2.5 mM, pH 8, 30°C; trace E. coli ATPase not excluded by the authors.
Series [3] addresses T1, Dbp6. The series is described as follows: EMSA, effect on Dbp6 binding to hemi-duplex RNA ds38/[…]. Conditions: 0.5-5 mM nucleotide, 0.5 μM protein, 1 nM RNA, MgCl2 2.5 mM, pH 8, 30°C; indirect read-out. In general terms: In EMSA bound probe runs differently from free probe, usually more slowly.
For series [4], the target named is T2, Dbp6 (Saccharomyces cerevisiae, UniProt P53734 1-629).
T2 sequence: T1 sequence (P53734 1-629)
Put plainly: EMSA; Dbp6 up to 1.2 uM; EMSA: 1 nM 32P-RNA, RB 1x (composition not in the material), RNasin, 15 min at 30 C, native PAGE in TBE; bridging: 0.8 uM Dbp6, RB 1x, 15 min at 30 C. Particulars: protein: recombinant; tags: N-terminal His6; label: 32P.

Series [5] concerns the molecule itself. The series is described as follows: SEC; Superdex 200 gel filtration after HisTrap; GF-ATPase buffer (20 mM Tris–HCl pH 8.0, 100 mM KCl, 10% glycerol, 1 mM DTT, 0.5 mM PMSF); column calibrated with molecular weight standards.
The target in series [6] is T2, Dbp6. Put plainly: EMSA; no nucleotide; EMSA: 1 nM 32P-RNA, RB 1x (composition not in the material), RNasin, 15 min at 30 C, native PAGE in TBE; bridging: 0.8 uM Dbp6, RB 1x, 15 min at 30 C. Particulars: protein: recombinant; tags: N-terminal His6; label: 32P.
Series [7] deals with T2, Dbp6. Put plainly: EMSA; high affinity; no nucleotide; EMSA: 1 nM 32P-RNA, RB 1x (composition not in the material), RNasin, 15 min at 30 C, native PAGE in TBE; bridging: 0.8 uM Dbp6, RB 1x, 15 min at 30 C. Particulars: protein: recombinant; tags: N-terminal His6; label: 32P on ss38-mer; 3' overhang 20 nt on strand 1; 38 bp region with one C-C mismatch.
In series [8] the target is T3, Dbp6 M-II mutant (motif II, DEAD to DAAD), His6-tagged recombinant, P53734.
T3 chain: T1 sequence (P53734 1-629) with E342A
Put plainly: UV cross-linking. Particulars: chain shown with the change, no RNA included, parent: est. 0.51, read off a plot.

Series [9] concerns the molecule itself. The series is described as follows: cross-linking; purified recombinant Dbp6 (1.5 or 0.8 μM) in RB 1× buffer, 15 min at 20°C, UV 312 nm for 6 min on ice; SDS-PAGE, western blot or silver staining; with or without ATP (1 or 5 μM with labelled ATP; 5 mM) and RNA oligonucleotide. For orientation: Immunoblotting shows a protein as a band on a membrane.
Series [10] concerns the molecule itself. Put plainly: co-IP; immunoprecipitation of Dbp6-ZZ with IgG-sepharose from extracts of a yeast strain expressing HA-Dbp6 and ZZ-tagged Dbp6, in the presence of RNase; western blot.
Series [11] has as its target T4, Dbp6 M-I mutant (motif I, GTGKT), His6-tagged recombinant, P53734.
T4 chain: T1 sequence (P53734 1-629) with K240A
The series is described as follows: UV cross-linking. Conditions: chain shown with the change, no RNA included, parent: est. 0.51, read off a plot.

Positions count from the first letter of the chain named.

Take `Nc1ncnc2c1ncn2[C@@H]1O[C@H](COP(=O)(O)OP(=O)(O)O)[C@@H](O)[C@H]1O` [ADP]: the “RNA strand annealing assay (ss38-mer / ss58-mer), effect of nucleotide” value at Dbp6 [1] is given as “In contrast, ADP addition increased the annealing activity of Dbp6”.
Take `Nc1ncnc2c1ncn2[C@@H]1O[C@H](COP(=O)(O)OP(=O)(O)OP(=O)(O)O)[C@@H](O)[C@H]1O` [ATP]: the “ATPase assay, TLC of [α-32P]-ADP” value on Dbp6 [2] is “This ATPase activity could be attributed to Dbp6”.
As to `Nc1ncnc2c1ncn2[C@@H]1O[C@H](COP(=O)(O)OP(=O)(O)OP(O)(O)=S)[C@@H](O)[C@H]1O` [ATPγS], the “EMSA, effect on Dbp6 binding to hemi-duplex RNA ds38/58” value at Dbp6 [3] was “ATPγS had an even stronger effect on Dbp6 binding to the hemi-duplex than ATP”.
As for GGGAGACCGGAAUUCAUCAUU (ssRNA) [ss21-mer], the binding result with Dbp6 [4] was “no binding”.

B1: Dbp6 ΔN mutant (lacking the N-terminal D/E-rich sequence, residues 24–128), His6-tagged recombinant (enzyme, S. cerevisiae, UniProt P53734 1-629, looked up)
chain: MFASRFDPSQLTAPAASAPEGIVHQLKQIPQPEFVKNPMNLNTNSLQFKSTGWLNTEKIYYDNSLIKPFSDYANELEAKLLQNICKNFSTNTFPIQSIILDSILPVLNFTLNVSKRNFTRRIGDILVNAATGSGKTLAYSIPIVQTLFKRQINRLRCIIIVPTKLLINQVYTTLTKLTQGTSLIVSIAKLENSLKDEHKKLSNLEPDILITTPGRLVDHLNMKSINLKNLKFLIIDEADRLLNQSFQGWCPKLMSHLKTDKLDTLPGNVIKMIFSATLTTNTEKLNGLNLYKPKLFLKQTDKLYQLPNKLNEFNINIPTAKSVYKPLILLYSICQFMAHSPIAAKILIFVKSNESSIRLSKLLQLICESRSQSSVLKNLQNLAVSINSVNSNNSKAENKKIVANFSHHSESAGITILITTDIMSRGIDINDITQVINYDPPMSSQQYVHRVGRTARANELGSAYNLLVGRGERTFFDDLNKDLDRDGKSVQPLELDFTLLESDSELYTSSLESLKNYHNNTAQA
notes: made from pET-Dbp6; also called pET-ΔN; source: E. coli Rosetta λDE3, purified (HisTrap FF, Superdex 200)
As to B1, the binding result in series [5] was “binds”.
In the case of CAGAACCGCUACACUGAAAUGAUCAAUUCCGGUCUCCC (ssRNA) [ss38-mer], in the series with Dbp6 [6], the binding result is given as “binds”.

B2: ds38/58 hemi-duplex (dsRNA)
RNA 1: GGGAGACCGGAAUUCAUCAUUUCAGUGUAGCGGUUCUGACGUGCAAAUCGAUCGUCGA
RNA 2: CAGAACCGCUACACUGAAAUGAUCAAUUCCGGUCUCCC
As to B2, the binding result in the series with Dbp6 [7] was “binds”.

B3: recombinant His6-Dbp6, P53734 M-II: E to A in motif II (DEAD to DAAD) (protein)
chain: T1 sequence (P53734 1-629) with E342A
With B3, in [8], the other: quantity of oligomers with ATP, relative to without ATP (set at 1) was determined as 0.96.

B4: recombinant His6-Dbp6 (enzyme, S. cerevisiae, UniProt P53734 1-629, looked up)
chain: T1 sequence (P53734 1-629)
notes: DEAD-box protein Dbp6 of yeast (S. cerevisiae), DBP6 ORF cloned downstream of a His tag in modified pET-15b; His6-Dbp6 ca. 73 kDa; SEC fractions also hold some truncated fragments of Dbp6; fraction F17 was used for the in vitro assays; also called WT Dbp6; wild-type Dbp6; source: E. coli Rosetta λDE3, purified (HisTrap FF, Superdex 200); not shown: His6, N-terminal, kept
B4: the “stoichiometry N” value in series [5] turned out to be 2. Moreover, the “fold reduction of oligomerization with 5 mM ATP against no ATP” value in series [9] was around 2 fold.

B5: Dbp6 expressed in yeast as HA-Dbp6 and as Dbp6-ZZ (enzyme, S. cerevisiae, UniProt P53734 1-629, looked up)
chain: T1 sequence (P53734 1-629)
notes: DEAD-box protein Dbp6 of yeast (S. cerevisiae); HA-tagged ORF under the GAL1-10 promoter and wild-type DBP6 cassette in pHA113 between a GAR1 promoter and a ZZ tag; also called ZZ-tagged Dbp6; GAL::HA-DBP6; source: yeast strain expressing HA-Dbp6 as well as ZZ-tagged Dbp6, in extract
Turning to B5, the “fold enrichment over background” value in series [10] is around 2 fold.

B6: recombinant His6-Dbp6, P53734 M-I: K to A in motif I (GTGKT) (protein)
chain: T1 sequence (P53734 1-629) with K240A
In the case of B6, the other: quantity of oligomers with ATP, relative to without ATP (set at 1) in series [11] is 0.97.
